Reference: PMC5333794

Assays:
gp120 (bead-conjugated) = experiment: Fc Array (multiplexed bead assay, anti-huIgG-PE detection); conditions: variants incubated with gp120-coated microspheres at equal concentrations; read off a plot
[1] = biological target: tetrameric FcγRIII detection reagent (UniProt P08637); experiment: Fc Array (multiplexed bead assay, tetrameric FcγRIII detection); conditions: variants incubated with gp120-coated microspheres at equal concentrations; read off a plot
Chain of UniProt P08637 (P08637 17-254): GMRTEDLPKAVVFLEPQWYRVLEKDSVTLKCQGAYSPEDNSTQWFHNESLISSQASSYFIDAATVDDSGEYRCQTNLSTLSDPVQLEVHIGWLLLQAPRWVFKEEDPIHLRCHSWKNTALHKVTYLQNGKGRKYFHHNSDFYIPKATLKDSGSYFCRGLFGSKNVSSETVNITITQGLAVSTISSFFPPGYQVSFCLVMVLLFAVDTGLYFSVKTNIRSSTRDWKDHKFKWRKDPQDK

Row | Substance | response (gp120 (bead-conjugated)) | response [1]
1 | b12 D270E | 14000 MFI | 110 MFI
2 | b12 G236A | 14000 MFI | 59 MFI
3 | b12 I332E | 13000 MFI | 320 MFI
4 | b12 IE/SD | 14000 MFI | 2000 MFI
5 | b12 IE/SD/GA | 13000 MFI | 1100 MFI
6 | b12 K338A | 13000 MFI | 110 MFI
7 | b12 R292A | 13000 MFI | 140 MFI
8 | b12 S239A | 13000 MFI | 110 MFI
9 | b12 S267G | 14000 MFI | 80 MFI
10 | b12 S298A | 14000 MFI | 96 MFI
11 | b12 SD/IE/AL | 13000 MFI | 2800 MFI
